Experimental data as given in PMC11384727.

Biological target: PKM2 (pcDNA3.1(+)-PKM2, transfected) (human) (UniProt P14618)
Test: cross-linking

PKM2 (pcDNA3.1(+)-PKM2, transfected), P14618 1-531 (enzyme; other documents disagree on this pair), sequence (P14618 whole entry): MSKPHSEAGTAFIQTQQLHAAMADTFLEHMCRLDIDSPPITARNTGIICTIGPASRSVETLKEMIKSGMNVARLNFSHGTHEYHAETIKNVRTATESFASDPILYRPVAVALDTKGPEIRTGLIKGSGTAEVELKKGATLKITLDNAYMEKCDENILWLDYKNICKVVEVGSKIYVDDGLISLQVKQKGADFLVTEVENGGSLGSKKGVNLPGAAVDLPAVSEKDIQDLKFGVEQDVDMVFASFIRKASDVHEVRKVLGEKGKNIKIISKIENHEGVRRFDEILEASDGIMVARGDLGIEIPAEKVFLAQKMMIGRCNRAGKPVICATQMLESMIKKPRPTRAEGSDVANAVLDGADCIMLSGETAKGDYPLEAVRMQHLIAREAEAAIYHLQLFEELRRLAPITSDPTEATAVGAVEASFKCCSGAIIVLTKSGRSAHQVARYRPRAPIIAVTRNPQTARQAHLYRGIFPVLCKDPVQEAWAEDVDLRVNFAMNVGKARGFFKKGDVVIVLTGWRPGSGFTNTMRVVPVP

PKM2 (pcDNA3.1(+)-PKM2, transfected), P14618 1-531 (enzyme; other documents disagree on this pair)
stoichiometry N: 2
